Assay results published in patent US20220289861A1.

Experiments:
[1] = biological target: truncated human CD163 ECD SRCR domain 1-5 fragment with C-terminus histidine tag (human) (UniProt Q86VB7); assay: ratio of EC50 on huCD163 SRCR 1-5 to EC50 on huCD163 ECD
[2] = biological target: recombinant murine CD163 (R&D Systems, No. 7435-CD-050) (murine) (UniProt Q2VLH6); assay: ELISA on plate-coated recombinant murine CD163 (5 ug/mL)
recombinant murine CD163 (R&D Systems, No. 7435-CD-050) (murine), sequence (Q2VLH6 39-1045 limits assumed): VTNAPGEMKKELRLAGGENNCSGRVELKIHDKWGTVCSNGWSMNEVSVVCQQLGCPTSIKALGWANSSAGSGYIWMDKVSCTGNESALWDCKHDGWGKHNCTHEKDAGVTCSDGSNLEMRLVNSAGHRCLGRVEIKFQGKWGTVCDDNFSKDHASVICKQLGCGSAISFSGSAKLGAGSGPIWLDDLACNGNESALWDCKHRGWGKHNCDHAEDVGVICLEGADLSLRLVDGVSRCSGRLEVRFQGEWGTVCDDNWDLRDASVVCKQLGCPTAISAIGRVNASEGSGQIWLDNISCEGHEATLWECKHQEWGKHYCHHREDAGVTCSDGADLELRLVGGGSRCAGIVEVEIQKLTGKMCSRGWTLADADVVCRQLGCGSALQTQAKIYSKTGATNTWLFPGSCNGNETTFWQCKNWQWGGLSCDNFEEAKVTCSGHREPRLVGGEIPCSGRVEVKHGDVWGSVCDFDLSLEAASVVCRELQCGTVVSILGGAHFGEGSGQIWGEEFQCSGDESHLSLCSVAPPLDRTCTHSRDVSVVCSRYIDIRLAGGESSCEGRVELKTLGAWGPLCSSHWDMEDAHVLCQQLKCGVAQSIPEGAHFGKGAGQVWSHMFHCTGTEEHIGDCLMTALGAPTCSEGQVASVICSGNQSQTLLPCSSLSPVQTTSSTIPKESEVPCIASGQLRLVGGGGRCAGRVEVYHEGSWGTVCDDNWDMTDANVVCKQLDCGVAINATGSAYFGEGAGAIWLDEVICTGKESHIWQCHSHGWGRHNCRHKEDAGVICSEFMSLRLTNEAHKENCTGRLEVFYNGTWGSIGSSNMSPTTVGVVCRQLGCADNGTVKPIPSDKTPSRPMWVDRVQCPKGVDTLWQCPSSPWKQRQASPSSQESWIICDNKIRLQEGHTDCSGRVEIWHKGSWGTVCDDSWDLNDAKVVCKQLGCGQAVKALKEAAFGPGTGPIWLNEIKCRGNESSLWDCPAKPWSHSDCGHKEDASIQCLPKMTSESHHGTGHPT

truncated human CD163 ECD SRCR domain 1-5 fragment with C-terminus histidine tag (human), sequence (Q86VB7 42-578 limits assumed): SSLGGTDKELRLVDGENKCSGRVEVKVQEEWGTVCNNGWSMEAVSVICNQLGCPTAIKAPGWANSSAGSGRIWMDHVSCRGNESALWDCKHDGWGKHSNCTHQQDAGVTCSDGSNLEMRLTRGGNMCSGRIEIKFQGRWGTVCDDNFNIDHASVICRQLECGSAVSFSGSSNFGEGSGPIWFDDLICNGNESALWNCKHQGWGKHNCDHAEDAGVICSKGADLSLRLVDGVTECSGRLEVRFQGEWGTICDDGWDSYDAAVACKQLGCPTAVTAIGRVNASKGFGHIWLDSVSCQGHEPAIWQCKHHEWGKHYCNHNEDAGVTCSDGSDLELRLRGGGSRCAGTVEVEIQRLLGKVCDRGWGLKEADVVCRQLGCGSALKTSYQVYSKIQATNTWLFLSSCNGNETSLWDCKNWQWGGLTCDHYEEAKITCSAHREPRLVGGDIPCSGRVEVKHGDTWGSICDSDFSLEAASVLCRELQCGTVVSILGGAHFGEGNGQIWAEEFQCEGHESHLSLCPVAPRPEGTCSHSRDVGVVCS

Row | Substance | Ratio SRCR 1-5/ECD [1] | EC50 (read off the curve) [2]
1 | 215927 (antibody) | 1.17 | –
2 | EDHu-1 (antibody) | 0.96 | –
3 | commercially available rat anti-muCD163 antibody (Thermo Fisher Scientific #14-1631-82) | – | 0.03 nM
